# Test results taken from patent US20200079833A1 (AstraZeneca / MedImmune, published 2020).
# Starred links: 1 amine or outer side, 2 acyl side, 3 side chain; linkers in the order of their positions; H or OH if unused. Non-standard residues stand in square brackets, D forms with d. Groups on a side chain read outwards from the residue. Primed or numbered codes have the meaning given here. No end group written: not given here. *: point of attachment. Dodecylbenzoate = dodecylbenzoyl lipid group; γGlu = O=C(O)[C@H](CCC(=O)[*:2])N[*:1]; Stearoyl = CCCCCCCCCCCCCCCCCC(=O)*; αMeF = C[C@](N)(Cc1ccccc1)C(=O)O; αMeK = C[C@](N)(CCCCN)C(=O)O; Lauroyl = CCCCCCCCCCCC(=O)*; αMeS = C[C@](N)(CO)C(=O)O; PEG2′ = not defined here; Aib = CC(C)(N)C(=O)O; Ahx = NCCCCCC(=O)O
# T1: GLP-1R (INS1e assay) (UniProt P32301 22-463, limits assumed)
# T1 sequence (looked up): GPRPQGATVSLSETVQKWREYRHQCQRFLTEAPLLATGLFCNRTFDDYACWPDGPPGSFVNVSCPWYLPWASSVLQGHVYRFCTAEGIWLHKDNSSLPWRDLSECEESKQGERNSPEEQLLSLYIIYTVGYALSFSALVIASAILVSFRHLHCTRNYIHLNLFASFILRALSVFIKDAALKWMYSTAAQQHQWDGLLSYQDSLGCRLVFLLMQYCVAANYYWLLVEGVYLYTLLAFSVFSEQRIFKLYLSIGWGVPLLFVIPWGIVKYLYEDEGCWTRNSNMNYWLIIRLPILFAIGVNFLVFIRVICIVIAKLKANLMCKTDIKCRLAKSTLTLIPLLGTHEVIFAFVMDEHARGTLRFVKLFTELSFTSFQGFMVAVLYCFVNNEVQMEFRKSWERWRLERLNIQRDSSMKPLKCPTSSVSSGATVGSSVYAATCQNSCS
# Target: T1, GLP-1R (INS1e assay)
# Assay: cell-based or functional assay
Binder,INS1e assay EC50 GLP-1 R n1 [nM],INS1e assay EC50 GLP-1 R n2 [nM],INS1e assay EC50 Mean pM GLP-1R [pM]
H[Aib]EGS[αMeF]TSDV[αMeS]S[αMeF]LEGEAA[αMeK]E[αMeF]IA[αMeF]VVK([Ahx-Ahx-Ahx-Lauroyl])GG-NH2 (N-terminus assumed; SMILES CCCCCCCCCCCC(=O)NCCCCCC(=O)NCCCCCC(=O)NCCCCCC(=O)NCCCC[C@H](NC(=O)[C@@H](NC(=O)[C@@H](NC(=O)[C@](C)(Cc1ccccc1)NC(=O)[C@H](C)NC(=O)[C@@H](NC(=O)[C@](C)(Cc1ccccc1)NC(=O)[C@H](CCC(=O)O)NC(=O)[C@](C)(CCCCN)NC(=O)[C@H](C)NC(=O)[C@H](C)NC(=O)[C@H](CCC(=O)O)NC(=O)CNC(=O)[C@H](CCC(=O)O)NC(=O)[C@H](CC(C)C)NC(=O)[C@](C)(Cc1ccccc1)NC(=O)[C@H](CO)NC(=O)[C@](C)(CO)NC(=O)[C@@H](NC(=O)[C@H](CC(=O)O)NC(=O)[C@H](CO)NC(=O)[C@@H](NC(=O)[C@](C)(Cc1ccccc1)NC(=O)[C@H](CO)NC(=O)CNC(=O)[C@H](CCC(=O)O)NC(=O)C(C)(C)NC(=O)[C@@H](N)Cc1c[nH]cn1)[C@@H](C)O)C(C)C)[C@@H](C)CC)C(C)C)C(C)C)C(=O)NCC(=O)NCC(N)=O) [SEQ ID NO 169],0.0931,0.269,181
H[Aib]EGS[αMeF]TSDV[αMeS]S[αMeF]LEGEAA[αMeK]E[αMeF]IA[αMeF]VVK([PEG2′-Lauroyl])GG-NH2 [SEQ ID NO 170],0.548,0.376,462
H[Aib]EGS[αMeF]TSDV[αMeS]S[αMeF]LEGEAA[αMeK]E[αMeF]IA[αMeF]VVK([PEG2′-PEG2′-Lauroyl])GG-NH2 [SEQ ID NO 171],0.0817,0.175,128
H[Aib]EGS[αMeF]TSDV[αMeS]S[αMeF]LEGEAA[αMeK]E[αMeF]IA[αMeF]VVK([PEG2′-PEG2′-PEG2′-Lauroyl])GG-NH2 [SEQ ID NO 172],0.0396,0.028,33.8
H[Aib]EGS[αMeF]TSDV[αMeS]S[αMeF]LEGEAA[αMeK]E[αMeF]IA[αMeF]VVK([Ahx-Ahx-Dodecylbenzoate])GG-NH2 [SEQ ID NO 177],0.266,0.755,510
H[Aib]EGS[αMeF]TSDV[αMeS]S[αMeF]LEGEAA[αMeK]E[αMeF]IA[αMeF]VVK([Ahx-Ahx-Ahx-Dodecylbenzoate])GG-NH2 [SEQ ID NO 178],0.31,0.258,284
H[Aib]EGS[αMeF]TSDV[αMeS]S[αMeF]LEGEAA[αMeK]E[αMeF]IA[αMeF]VVK([PEG2′-Dodecylbenzoate])GG-NH2 [SEQ ID NO 179],0.336,0.345,340
H[Aib]EGS[αMeF]TSDV[αMeS]S[αMeF]LEGEAA[αMeK]E[αMeF]IA[αMeF]VVK([PEG2′-PEG2′-Dodecylbenzoate])GG-NH2 [SEQ ID NO 180],0.0678,0.0506,59.2
H[Aib]EGS[αMeF]TSDV[αMeS]S[αMeF]LEGEAA[αMeK]E[αMeF]IA[αMeF]VVK([PEG2′-PEG2′-PEG2′-Dodecylbenzoate])GG-NH2 [SEQ ID NO 181],0.0453,0.114,79.7
H[Aib]EGS[αMeF]TSDV[αMeS]S[αMeF]LEGEAA[αMeK]E[αMeF]IA[αMeF]VVK([γGlu-γGlu-γGlu-Stearoyl])GG-NH2 (N-terminus assumed; SMILES CCCCCCCCCCCCCCCCCC(=O)N[C@@H](CCC(=O)N[C@@H](CCC(=O)N[C@@H](CCC(=O)NCCCC[C@H](NC(=O)[C@@H](NC(=O)[C@@H](NC(=O)[C@](C)(Cc1ccccc1)NC(=O)[C@H](C)NC(=O)[C@@H](NC(=O)[C@](C)(Cc1ccccc1)NC(=O)[C@H](CCC(=O)O)NC(=O)[C@](C)(CCCCN)NC(=O)[C@H](C)NC(=O)[C@H](C)NC(=O)[C@H](CCC(=O)O)NC(=O)CNC(=O)[C@H](CCC(=O)O)NC(=O)[C@H](CC(C)C)NC(=O)[C@](C)(Cc1ccccc1)NC(=O)[C@H](CO)NC(=O)[C@](C)(CO)NC(=O)[C@@H](NC(=O)[C@H](CC(=O)O)NC(=O)[C@H](CO)NC(=O)[C@@H](NC(=O)[C@](C)(Cc1ccccc1)NC(=O)[C@H](CO)NC(=O)CNC(=O)[C@H](CCC(=O)O)NC(=O)C(C)(C)NC(=O)[C@@H](N)Cc1c[nH]cn1)[C@@H](C)O)C(C)C)[C@@H](C)CC)C(C)C)C(C)C)C(=O)NCC(=O)NCC(N)=O)C(=O)O)C(=O)O)C(=O)O) [SEQ ID NO 184],0.351,0.501,426
H[Aib]EGS[αMeF]TSDV[αMeS]S[αMeF]LEGEAA[αMeK]E[αMeF]IA[αMeF]VVK([PEG2′-PEG2′-Stearoyl])GG-NH2 [SEQ ID NO 189],0.114,0.173,144
H[Aib]EGS[αMeF]TSDV[αMeS]S[αMeF]LEGEAA[αMeK]E[αMeF]IA[αMeF]VVK([PEG2′-PEG2′-PEG2′-Stearoyl])GG-NH2 [SEQ ID NO 190],0.0397,0.0485,44.1
H[Aib]EGS[αMeF]TSDV[αMeS]S[αMeF]LEGEAA[αMeK]E[αMeF]IA[αMeF]VVK([PEG2′-PEG2′-Stearoyl])GG-NH2 [SEQ ID NO 198],1.38,0.89,1140
H[Aib]EGS[αMeF]TSDV[αMeS]S[αMeF]LEGEAA[αMeK]E[αMeF]IA[αMeF]VVK([PEG2′-PEG2′-PEG2′-Stearoyl])GG-NH2 [SEQ ID NO 199],0.787,2.13,1460
